Reference: patent US20150307627A1 (BAC IP B V, published 2015)

Tests used:
Human IgG [1] = target: T1, Human IgG; test: affinity chromatography, VHH on NHS-Sepharose, 150 cm/h
T1 construct: also called HuIgG; human IgG-Fc domains
Experimental: The dynamic binding capacity (DBC) of the IgG-Fc domain binding VHH fragments immobilized onto NHS sepharose was tested. 10 ml of 1.0 mg/ml human IgG in PBS pH 7.4 was loaded on a 400 μl column with a linear flow of 150 cm/h. After the washing with 10 column volumes PBS pH 7.4, the column was eluted with 0.1 M glycine buffer pH 3.0. Based on integration of the OD280 signal of the flow through and elution peak, the dynamic binding capacity of the column was calculated (Table 11).

HuIgG3 = target: T2, HuIgG3 (human, UniProt P01860-1 1-377); test: SPR, VHH immobilised, 1:1 Langmuir fit
T2 construct: Purified human IgG of subclass 3; also called Human-IgG3
T2 sequence (P01860 other isoform, or with tags, fused parts or gaps): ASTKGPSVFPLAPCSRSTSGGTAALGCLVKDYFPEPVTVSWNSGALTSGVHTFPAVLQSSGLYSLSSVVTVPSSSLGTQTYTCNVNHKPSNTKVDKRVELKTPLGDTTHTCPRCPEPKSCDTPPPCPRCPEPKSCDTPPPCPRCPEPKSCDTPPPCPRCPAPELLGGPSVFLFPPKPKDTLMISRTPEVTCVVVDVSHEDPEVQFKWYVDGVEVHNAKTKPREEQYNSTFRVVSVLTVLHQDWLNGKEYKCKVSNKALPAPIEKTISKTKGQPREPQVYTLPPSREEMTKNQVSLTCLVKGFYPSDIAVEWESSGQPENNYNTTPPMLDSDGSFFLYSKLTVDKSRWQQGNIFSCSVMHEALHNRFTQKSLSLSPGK
Experimental: (§1) Binding affinity constants of anti IgG-Fc VHH fragments were determined using surface plasmon resonance analysis (SPR) on a BiaCore 3000. For this purpose, purified VHH fragments were immobilised onto the surface of a CM5 sensor chip and subsequently incubated with different concentrations of purified IgG antibodies in HBS-EP buffer. Binding was allowed for 3 minutes at 30 μl/min followed by a dissociation step of 15 minutes at 30 μl/min Binding curves were fitted according to a 1:1 Langmuir binding model using Biacore software.

HuIgG1 = target: T3, HuIgG1 (human, UniProt P01857-1 1-330 = IgG part); test: SPR, VHH immobilised, 1:1 Langmuir fit
T3 construct: Purified human IgG of subclass 1; also called Human-IgG1
T3 sequence (P01857 other isoform, or with tags, fused parts or gaps): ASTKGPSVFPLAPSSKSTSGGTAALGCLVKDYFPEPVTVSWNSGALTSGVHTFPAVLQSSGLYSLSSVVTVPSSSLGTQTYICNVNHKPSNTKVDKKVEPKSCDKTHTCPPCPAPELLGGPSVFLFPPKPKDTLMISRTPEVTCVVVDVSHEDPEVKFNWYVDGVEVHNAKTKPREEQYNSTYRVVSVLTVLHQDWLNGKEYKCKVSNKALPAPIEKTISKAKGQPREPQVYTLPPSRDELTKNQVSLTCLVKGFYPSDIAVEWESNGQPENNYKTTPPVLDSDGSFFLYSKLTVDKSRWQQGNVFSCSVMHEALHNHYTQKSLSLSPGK
Experimental: as §1

Human IgG [2] = target: T1, Human IgG; test: SPR, VHH immobilised, 1:1 Langmuir fit
Experimental: as §1

HuIgG4 = target: T4, HuIgG4 (human, UniProt P01861-1 1-327 = IgG part); test: SPR, VHH immobilised, 1:1 Langmuir fit
T4 construct: Purified human IgG of subclass 4; also called Human-IgG4
T4 sequence (P01861 other isoform, or with tags, fused parts or gaps): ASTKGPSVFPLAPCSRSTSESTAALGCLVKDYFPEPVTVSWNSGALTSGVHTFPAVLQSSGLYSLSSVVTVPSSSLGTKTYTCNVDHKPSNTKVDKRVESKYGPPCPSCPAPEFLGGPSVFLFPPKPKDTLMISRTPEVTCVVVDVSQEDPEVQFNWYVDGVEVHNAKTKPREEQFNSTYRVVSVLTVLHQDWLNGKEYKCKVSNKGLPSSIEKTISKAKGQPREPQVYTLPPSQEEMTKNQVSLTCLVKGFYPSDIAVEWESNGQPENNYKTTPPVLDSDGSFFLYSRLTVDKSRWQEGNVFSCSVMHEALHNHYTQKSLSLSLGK
Experimental: as §1

HuIgG2 = target: T5, HuIgG2 (human, UniProt P01859-1 1-326 = IgG part); test: SPR, VHH immobilised, 1:1 Langmuir fit
T5 construct: Purified human IgG of subclass 2; also called Human-IgG2
T5 sequence (P01859 other isoform, or with tags, fused parts or gaps): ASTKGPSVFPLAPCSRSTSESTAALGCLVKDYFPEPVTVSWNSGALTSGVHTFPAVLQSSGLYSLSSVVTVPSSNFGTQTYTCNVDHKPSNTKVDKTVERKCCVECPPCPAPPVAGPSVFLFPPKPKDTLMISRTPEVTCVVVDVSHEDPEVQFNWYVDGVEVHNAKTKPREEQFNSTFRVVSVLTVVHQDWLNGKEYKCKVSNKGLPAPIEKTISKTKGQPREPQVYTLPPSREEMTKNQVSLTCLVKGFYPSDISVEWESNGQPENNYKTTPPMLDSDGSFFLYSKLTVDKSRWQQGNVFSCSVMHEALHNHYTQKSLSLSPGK
Experimental: as §1

Dynamic binding capacity (Human IgG [1]): 18.2 mg human IgG/ml matrix | Ka (HuIgG3): 2.09e+07 M⁻¹ | Kd (HuIgG3): 47.8 nM | koff (HuIgG3): 0.000272 s⁻¹ | kon (HuIgG3): 5690 M⁻¹ s⁻¹ | Ka (HuIgG1): 1.74e+09 M⁻¹ | Kd (HuIgG1): 0.575 nM | koff (HuIgG1): 0.000208 s⁻¹ | kon (HuIgG1): 361000 M⁻¹ s⁻¹ | Ka (Human IgG [2]): 4.67e+08 M⁻¹ | Kd (Human IgG [2]): 2.14 nM | koff (Human IgG [2]): 0.000176 s⁻¹ | kon (Human IgG [2]): 82400 M⁻¹ s⁻¹ | Ka (HuIgG4): 3.32e+09 M⁻¹ | Kd (HuIgG4): 0.302 nM | koff (HuIgG4): 5.91e-05 s⁻¹ | kon (HuIgG4): 196000 M⁻¹ s⁻¹ | Ka (HuIgG2): 5.76e+08 M⁻¹ | Kd (HuIgG2): 1.73 nM | koff (HuIgG2): 0.000212 s⁻¹ | kon (HuIgG2): 122000 M⁻¹ s⁻¹
B1: IgG-Fc-01 (VHH)
VHH: QVQLQESGGGLVQPGGSLRLSCAASGGTSIRIGSINALAWYRQALGNQRELVAAVTEGGSTNYADFVKGRFTISRDNAQNMMYLQMNSLKPEDTAVYYCNADKVLYSRGGYYSVANDLWGQGTQVTVSS
notes: also called IgG-Fc-1
